Results taken from PMC7427332, “Tuning Transcription Factor Availability through Acetylation-Mediated Genomic Redistribution”.
Where a chain is given by its changes, count along the chain named.

How the values were obtained:
[1] = biological target: T1, MITF DNA-binding domain K243Q (mouse? (MITF mouse cDNA stated for …, UniProt Q08874 287-403, K350Q)); assay: fluorescence anisotropy; FA: 10 mM Tris/HCl pH 7.5, 300 mM NaCl, 0.01% Triton X-100, 0.1 mg/mL BSA, 1.33 nM DNA, 25 C, 5 min; EMSA: 25 mM HEPES pH 7.4, 150 mM KCl, 10% glycerol, 200 ug/ml BSA, 5 uM DTT, 20 min, 6% native gel; details: protein: recombinant; tags: His (Ni-NTA purified; pETM-11 vector); chain copies: 2; label: 3'-fluorescein on strand 1; blunt
T1 sequence (Q08874 287-403 K350Q): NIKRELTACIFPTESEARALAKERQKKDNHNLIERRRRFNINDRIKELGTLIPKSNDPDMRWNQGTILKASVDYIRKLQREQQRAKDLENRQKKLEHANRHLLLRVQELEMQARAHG

[2] = biological target: T2, MITF DNA-binding domain WT (bHLH-LZ) (mouse? (MITF mouse cDNA stated for …, UniProt Q08874 287-403)); assay: as above; details: protein: recombinant; tags: His (Ni-NTA purified; pETM-11 vector); chain copies: 2; label: 3'-fluorescein on strand 1; blunt
T2 sequence (Q08874 287-403): as the sequence (Q08874 287-403 K350Q) above, with Q64K counted along it

[3] = biological target: T3, MITF DNA-binding domain K243R (mouse? (MITF mouse cDNA stated for …, UniProt Q08874 287-403, K350R)); assay: as above; details: protein: recombinant; tags: His (Ni-NTA purified; pETM-11 vector); chain copies: 2; label: 3'-fluorescein on strand 1; blunt
T3 sequence (Q08874 287-403 K350R): as the sequence (Q08874 287-403 K350Q) above, with Q64R counted along it

[4] = biological target: T2, MITF DNA-binding domain WT (bHLH-LZ); assay: competition; competing N5 in EMSA; FA: 10 mM Tris/HCl pH 7.5, 300 mM NaCl, 0.01% Triton X-100, 0.1 mg/mL BSA, 1.33 nM DNA, 25 C, 5 min; EMSA: 25 mM HEPES pH 7.4, 150 mM KCl, 10% glycerol, 200 ug/ml BSA, 5 uM DTT, 20 min, 6% native gel; details: protein: recombinant; tags: His (Ni-NTA purified; pETM-11 vector); chain copies: 2; blunt
[5] = biological target: T3, MITF DNA-binding domain K243R; assay: as above; details: protein: recombinant; tags: His (Ni-NTA purified; pETM-11 vector); chain copies: 2; blunt
[6] = biological target: T1, MITF DNA-binding domain K243Q; assay: as above; details: protein: recombinant; tags: His (Ni-NTA purified; pETM-11 vector); chain copies: 2; blunt
[7] = biological target: T2, MITF DNA-binding domain WT (bHLH-LZ); assay: competition; competing N5 in EMSA; low-affinity motif; FA: 10 mM Tris/HCl pH 7.5, 300 mM NaCl, 0.01% Triton X-100, 0.1 mg/mL BSA, 1.33 nM DNA, 25 C, 5 min; EMSA: 25 mM HEPES pH 7.4, 150 mM KCl, 10% glycerol, 200 ug/ml BSA, 5 uM DTT, 20 min, 6% native gel; details: protein: recombinant; tags: His (Ni-NTA purified; pETM-11 vector); chain copies: 2; blunt
[8] = biological target: T3, MITF DNA-binding domain K243R; assay: as above; details: protein: recombinant; tags: His (Ni-NTA purified; pETM-11 vector); chain copies: 2; blunt
[9] = biological target: T1, MITF DNA-binding domain K243Q; assay: fluorescence anisotropy; FA: 10 mM Tris/HCl pH 7.5, 300 mM NaCl, 0.01% Triton X-100, 0.1 mg/mL BSA, 1.33 nM DNA, 25 C, 5 min; EMSA: 25 mM HEPES pH 7.4, 150 mM KCl, 10% glycerol, 200 ug/ml BSA, 5 uM DTT, 20 min, 6% native gel; details: protein: recombinant; tags: His (Ni-NTA purified; pETM-11 vector); chain copies: 2; label: 3'-fluorescein on strand 1; blunt; remark: listed apart in the source
[10] = biological target: T1, MITF DNA-binding domain K243Q; assay: as above; details: protein: recombinant; tags: His (Ni-NTA purified; pETM-11 vector); chain copies: 2; label: 3'-fluorescein on strand 1; blunt; remark: listed apart in the source

B1: Consensus CLEAR box FA probe (dsDNA)
DNA 1: GAGATCACGTGATGAC
DNA 2: GTCATCACGTGATCTC
binding signal [1]: ~7 fold lower affinity than WT protein on same site
binding result [2]: binds
binding signal [3]: ~4 fold lower affinity than WT protein on same site

B2: TCACGTGA cold competitor (dsDNA)
DNA 1: CTAGACTTGTGGAGATCACGTGATGACTTCCTGATTCCT
DNA 2: AGGAATCAGGAAGTCATCACGTGATCTCCACAAGTCTAG
binding result [4]: binds
binding result [5]: binds
binding result [6]: binds

B3: TCACGTTA cold competitor (dsDNA)
DNA 1: B2 DNA 1 with G22T
DNA 2: B2 DNA 2 with C18A
binding result [6]: no binding
binding result [7]: binds
binding result [8]: binds

B4: E-box FA probe (dsDNA)
DNA 1: GAGACCACGTGTTGAC
DNA 2: GTCAACACGTGGTCTC
binding signal [3]: ~4 fold lower affinity than WT protein on same site
binding signal [9]: 21 fold lower affinity than WT protein on same site

B5: M-box FA probe (dsDNA)
DNA 1: GAGATCATGTGTTGAC
DNA 2: GTCAACACATGATCTC
binding signal [10]: 35 fold lower affinity than WT protein on same site
binding signal [3]: ~4 fold lower affinity than WT protein on same site
